One molecule from PMC10767048 (Nature Communications, 2024) can be followed below.

The assay deals with GPC trimer Enc nanoparticle (Lassa GPC trimer-SpyTag coupled to encapsulin-SpyCatcher) (Lassa virus, Mouse/Sierra …, stabilised). The experiment in a line: BLI. The note with it: both partners purified.

B1: Fab of human LASV neutralizing antibody 37.7H (Fab, V domains shown)
VH: EVQLVQSGGGLVKAGGSLRLSCAASGFTFSTYSMNWIRQAPGKGLEWVASISSRSGSHINYVDSVKGRFTISRDNARDLLYLQMNSLRVDDSALYYCARDRRSGTSPLPLDVWGQGTTVTVFS
VL: QSALTQPASVSGSPGQSITISCTGTGSDIGGYNFVSWYQQYPGKAPKLIIYEVRIRASGVSNRFSGSKSGNTASLTISGLQAEDEADYYCNSYSIHSPWVFGGGTKLTVL
B1: the Kd is < 1 pM, the koff was < 1e-07 s⁻¹ and the kon came out at 81100 M⁻¹ s⁻¹.
